Experimental data: patent publication US20220125947A1 (published 2022)

Target: T1, γδ T cell receptor on human γδ T cells (human)
T1 construct: also called AG000003021 (γδ T cells)
Assay: flow cytometry, DRC binding 37 C, human γδ T cells
Description: (§1) Binding of antibodies to human γδ T cells or SKW cell lines expressing Vγ9/Vδ2, Vγ9/Vδ2 or Vγ5/Vδ2 was carried out by flow cytometry. Briefly, the cells were centrifuged at 300×g for 5 minutes and the pellet was resuspended in 34 ml fresh media (in RPMI+10% FBS). 50 μL of the cells were then plated (44K cells/well) into assay plates. Samples were incubated for one hour at 37° C. in tissue culture (TC) incubator followed by wash steps by adding 100 μl FACS staining buffer. Secondary detention antibodies (A647 conjugated anti-human IgG Fc specific antibody (2 μg/mL) along with AF488 anti mouse CD3, clone OKT3 at 1 ug/mL) were added at 50 μL/well to appropriate wells according to the plate map. After incubating for 60 minutes at 37° C. in the TC incubator, cells were again washed as described above. This is followed by resuspension in 20 μL/well running buffer containing 1:1000 dilution of Sytox blue dead cell stain and the plates were run on iQue Screener.
(§2) Gating and data analysis: Human anti-human Vγ9 antibody (VG9B2 mAb at 10 nM) was used to mark the gating of positive population. All cells were first gated for singlets on SCS-A vs. SCS-H dot plot, live/dead followed by CD3 positive population, and this subset of CD3 positive population was gated for Vγ9 positive binding using positive control mAb. Cells were also assessed for cell binding of control mAbs by RL1 (A647) Geomeans from the live cell population. Advanced metrics were used and normalization metrics were chosen to calculate fold over background wells containing secondary antibody alone (designated as ‘background’ within ForeCyt settings).

Binder | Max. Activity
VG9B157 (antibody, human IgG1, lambda, V domains shown, IgG1, lambda) VH: EVQLLESGGGLVKPGASLKLSCAASGFTFSNHGMSWVRQTSDKRLEWVASITRGGDTTYYPDNVKGRFTISRENAKNTLYLQMSSLKSDDTALYYCTRGPLTVGYAMDYWGQGTTVTVSS VL: SSELTQDPAVSVALGQTVRITCQGDSLRSYYATWYQQKPGQAPILVIYGENNRPSGIPDRFSGSRSGNTASLTITGAQAEDEADYYCNSRDTGDHHLVFGGGTKLTVLG | 1070 fold over background
VG9B436 (antibody, human IgG1, lambda, IgG1, lambda) heavy: not shown light: QSVLTQPASVSGSPGQSITISCTGTSSDVGGYNYVSWYQQHPGKAPKLMIYEVSNRPSGVSNRFSGSKSGNTASLTISGLQAEDEADYYCSSYTSTSVVFGGGTKLTVLGQPKAAPSVTLFPPSSEELQANKATLVCLISDFYPGAVTVAWKADSSPVKAGVETTTPSKQSNNKYAASSYLSLTPEQWKSHRSYSCQVTHEGSTVEKTVAPTECS | 812 fold over background
VG9B438 (antibody, human IgG1, lambda, IgG1, lambda) heavy: not shown light: SYELTQPASVSGSPGQSITISCTGTSSDVGGYNYVSWYQQHPGKAPKLMIYEVSNRPSGVSNRFSGSKSGNTASLTISGLQAEDEADYYCSSYTSTSVVFGGGTKLTVLGQPKAAPSVTLFPPSSEELQANKATLVCLISDFYPGAVTVAWKADSSPVKAGVETTTPSKQSNNKYAASSYLSLTPEQWKSHRSYSCQVTHEGSTVEKTVAPTECS | 895 fold over background
VG9B437 (antibody, human IgG1, lambda, IgG1, lambda) heavy: not shown light: QSALTQPASVSGSPGQSITISCTGTSSDVGGYNYVSWYQQHPGKAPKLMIYEVSNRPSGVSNRFSGSKSGNTASLTISGLQAEDEADYYCSSYTSTSVVFGGGTKLTVLGQPKAAPSVTLFPPSSEELQANKATLVCLISDFYPGAVTVAWKADSSPVKAGVETTTPSKQSNNKYAASSYLSLTPEQWKSHRSYSCQVTHEGSTVEKTVAPTECS | 885 fold over background
VG9B434 (antibody, human IgG1, lambda, IgG1, lambda) heavy: not shown light: QSVLTQPASVSGSPGQSITISCTGTSSDVGGYNYVSWYQQHPGKAPKLMIYEVSNRPSGVSNRFSGSKSGNTASLTISGLQAEDEADYYCSSYTSTSVVFGGGTKLTVLGQPKAAPSVTLFPPSSEELQANKATLVCLISDFYPGAVTVAWKADSSPVKAGVETTTPSKQSNNKYAASSYLSLTPEQWKSHRSYSCQVTHEGSTVEKTVAPTECS | 804 fold over background
VG9B442 (antibody, human IgG1, lambda, IgG1, lambda) heavy: not shown light: QSALTQPASVSGSPGQSITISCTGTSSDVGGYNYVSWYQQHPGKAPKLMIYEVSNRPSGVSNRFSGSKSGNTASLTISGLQAEDEADYYCSSYTSTSVVFGGGTKVTVLGQPKAAPSVTLFPPSSEELQANKATLVCLISDFYPGAVTVAWKADSSPVKAGVETTTPSKQSNNKYAASSYLSLTPEQWKSHRSYSCQVTHEGSTVEKTVAPTECS | 856 fold over background

Next, values leading:

Max. Activity | Binder
1040 fold over background | VG9B453 (antibody, human IgG1, lambda, IgG1, lambda) heavy: not shown light: QSALTQPASVSGSPGQSITISCTGTSSDVGGYNYVSWYQQHPGKAPKLMIYEVSNRPSGVSNRFSGSKSGNTASLTISGLQAEDEADYYCSSYTSTSVVFGGGTKVTVLGQPKAAPSVTLFPPSSEELQANKATLVCLISDFYPGAVTVAWKADSSPVKAGVETTTPSKQSNNKYAASSYLSLTPEQWKSHRSYSCQVTHEGSTVEKTVAPTECS
946 fold over background | VG9B466 (antibody, human IgG1, lambda, IgG1, lambda) heavy: not shown light: SYELTQPASVSGSPGQSITISCTGTSSDVGGYNYVSWYQQHPGKAPKLMIYEVSNRPSGVSNRFSGSKSGNTASLTISGLQAEDEADYYCSSYTSTSVVFGGGTKLTVLGQPKAAPSVTLFPPSSEELQANKATLVCLISDFYPGAVTVAWKADSSPVKAGVETTTPSKQSNNKYAASSYLSLTPEQWKSHRSYSCQVTHEGSTVEKTVAPTECS
865 fold over background | VG9B457 (antibody, human IgG1, lambda, IgG1, lambda) heavy: not shown light: QAVLTQPASVSGSPGQSITISCTGTSSDVGGYNYVSWYQQHPGKAPKLMIYEVSNRPSGVSNRFSGSKSGNTASLTISGLQAEDEADYYCSSYTSTSVVFGGGTKLTVLGQPKAAPSVTLFPPSSEELQANKATLVCLISDFYPGAVTVAWKADSSPVKAGVETTTPSKQSNNKYAASSYLSLTPEQWKSHRSYSCQVTHEGSTVEKTVAPTECS
1010 fold over background | VG9B443 (antibody, human IgG1, lambda, IgG1, lambda) heavy: not shown light: QSALTQPASVSGSPGQSITISCTGTSSDVGGYNYVSWYQQHPGKAPKLMIYEVSNRPSGVSNRFSGSKSGNTASLTISGLQAEDEADYYCSSYTSTSVVFGGGTKLTVLGQPKAAPSVTLFPPSSEELQANKATLVCLISDFYPGAVTVAWKADSSPVKAGVETTTPSKQSNNKYAASSYLSLTPEQWKSHRSYSCQVTHEGSTVEKTVAPTECS
767 fold over background | VG9B460 (antibody, human IgG1, lambda, IgG1, lambda) heavy: not shown light: QLVLTQPASVSGSPGQSITISCTGTSSDVGGYNYVSWYQQHPGKAPKLMIYEVSNRPSGVSNRFSGSKSGNTASLTISGLQAEDEADYYCSSYTSTSVVFGGGTKLTVLGQPKAAPSVTLFPPSSEELQANKATLVCLISDFYPGAVTVAWKADSSPVKAGVETTTPSKQSNNKYAASSYLSLTPEQWKSHRSYSCQVTHEGSTVEKTVAPTECS
886 fold over background | VG9B464 (antibody, human IgG1, lambda, IgG1, lambda) heavy: not shown light: QSALTQPASVSGSPGQSITISCTGTSSDVGGYNYVSWYQQHPGKAPKLMIYEVSNRPSGVSNRFSGSKSGNTASLTISGLQAEDEADYYCSSYTSTSVVFGGGTKLTVLGQPKAAPSVTLFPPSSEELQANKATLVCLISDFYPGAVTVAWKADSSPVKAGVETTTPSKQSNNKYAASSYLSLTPEQWKSHRSYSCQVTHEGSTVEKTVAPTECS
1000 fold over background | VG9B455 (antibody, human IgG1, lambda, IgG1, lambda) heavy: not shown light: SYELTQPASVSGSPGQSITISCTGTSSDVGGYNYVSWYQQHPGKAPKLMIYEVSNRPSGVSNRFSGSKSGNTASLTISGLQAEDEADYYCSSYTSTSVVFGGGTKLTVLGQPKAAPSVTLFPPSSEELQANKATLVCLISDFYPGAVTVAWKADSSPVKAGVETTTPSKQSNNKYAASSYLSLTPEQWKSHRSYSCQVTHEGSTVEKTVAPTECS
928 fold over background | VG9B450 (antibody, human IgG1, lambda, IgG1, lambda) heavy: not shown light: QSVLTQPASVSGSPGQSITISCTGTSSDVGGYNYVSWYQQHPGKAPKLMIYEVSNRPSGVSNRFSGSKSGNTASLTISGLQAEDEADYYCSSYTSTSVVFGGGTKLTVLGQPKAAPSVTLFPPSSEELQANKATLVCLISDFYPGAVTVAWKADSSPVKAGVETTTPSKQSNNKYAASSYLSLTPEQWKSHRSYSCQVTHEGSTVEKTVAPTECS

Target: T2, γδ T cell receptor on human γδ T cells (human)
T2 construct: whole, on cells; Target is the γδ TCR on a mixed population of human γδ T cells; also called AG000003021 (γδ T cells)
Assay: flow cytometry DRC binding 37 C, human γδ T cells
Description: as §1, §2

Binder | Max. Activity
VG9B53 (antibody, human IgG1, kappa, V domains shown, IgG1, kappa; specificity column: Vd2) VH: QVQLQESGPGLVKPSETLSLTCTVSGGSISSYYWSWIRQPAGKGLEWIGRIHTIGSINYNPSLKSRVTMSVDTSKNQFSLKLSSVTAADTAVYYCAMEGVGATNYYYGMAVWGRGTMVTVSS VL: not shown | 536 fold over background
VG9B41 (antibody, human IgG1, kappa, V domains shown, IgG1, kappa; specificity column: Vd2) VH: QVQLQESGPQLVRPGASVKISCKASGYSFTTYWMHWVKQRPGQGLEWIGLIDPSDSETRLNQKFKDKATLTVDKSSSTAYMRLSSPTSEDSAVYYCASNRWLLGWGQGTMVTVSS VL: EIVLTQTPLSSPVTLGQPASISCRSSQSLVHSDGNTYLSWLHQRPGQPPRLLIYKISNRFSGVPDRFSGSGAGTDFTLKISRVETEDVGVYYCVQTREFPLTFGGGTKVEIKR | 137 fold over background
VG9B189 (antibody, human IgG1, lambda, V domains shown, IgG1, lambda; specificity column: Vd2) VH: EVQLVQSGGGLVKPGASLKLSCAASGFTFSNHGMSWVRQTSDKRLEWVASITRGGDTTYYPDNVKGRFTISRENAKNTLYLQMSSLKSDDTALYYCTRGPLTVGYAMDYWGQGTTVTVSS VL: QSVVTQPPSASGSPGQSVTISCTGTSSDVGGYNYVSWYQQHPGKAPKLMIYEVSKRPSGVPDRFSGSKSGNTASLTVSGLQAEDEADYYCNSYAGSNNFEVFGGGTKVTVLG | 739 fold over background
